Laboratory results reported in paper PMC8242953, “Immune Tolerance-Adjusted Personalized Immunogenicity Prediction for Pompe Disease” (Frontiers in Immunology, 2021).

Key:
[1] = CRIM-positive IOPD children on ERT; ref [5]; cited from earlier work
Description: The development of ADA to rhGAA is influenced by the presence or absence of endogenous GAA, defined as cross-reactive immunologic material (CRIM). Individuals who are CRIM-negative have a complete absence of GAA and are at the highest risk of ADA, whereas those who are CRIM-positive may be more immune tolerant to ERT, due to prior exposure to endogenous GAA ([4]). However, one-third of CRIM-positive IOPD children still develop high and sustained or intermediate ADA titers, putting them at risk for clinical decline similar to CRIM-negative individuals ([5]). All CRIM-negative patients develop H ...

[2] = Anti-rhGAA IgG antibody (ADA) titers in IOPD subjects on ERT; format: in vivo, human
Procedure: Children with a confirmed diagnosis of IOPD were enrolled in Duke University Medical Centers. IOPD was defined as the presence of hypertrophic cardiomyopathy in the first year of life. […] Clinical data including CRIM status, GAA variants, GAA enzyme activity, age at ERT initiation, and longitudinal anti-rhGAA IgG antibody titers were extracted from medical records ( Supplementary Table S1 ).
ADA titers were determined by Sanofi Genzyme using enzyme-linked immunosorbent assays (ELISA) and confirmed using radioimmunoprecipitation as described previously ([6]). Subjects whose ADA titers repeatedly exceed 51,200 after more than 6-months on rhGAA were classified as high and sustained antibody titers (HSAT) ([5], [11]). Subjects whose ADA titers fell between 12,800 and 51,200 within the first year of ERT were classified as sustained intermediate titers (SIT). Based on ADA titers, subjects were stratified into two groups; 1) High ADA, subjects who developed ADA titers in HSAT or SIT range (≥12,800) and 2) Low ADA, subjects who maintained ADA titers of ≤6,400.

**Q.** What does the source list for alglucosidase alfa [rhGAA]?
**A.** share of CRIM-positive IOPD children who develop high and sustained or intermediate ADA titers [1]: one-third; subjects who developed high ADA titers ([2]; 19 of 48 CRIM-positive IOPD subjects on rhGAA ERT without ITI, high ADA = HSAT or SIT, titers ≥12,800): 40%; subjects who developed low ADA titers ([2]; 29 of 48 CRIM-positive IOPD subjects on rhGAA ERT without ITI, low ADA = titers ≤6,400): 60%
